Laboratory results taken from the supplement of paper PMC7877785.
± gives the uncertainty stated by the source.

Experiment: self-splicing fitness, log relative to wild type (ln ratio); higher = more splicing; Tetrahymena group I intron in knt gene, E. coli kanamycin selection, DiMSum; sequences stand for … in CUCUCU…GGAGGGAAAAGUUAUCAGGCAUGCACCUGGUAGCUAGUCUUUAAACCAAUAGAUUGCAUCGGUUUAAAAGGCAAGACCGUCAAAUUGCGGGAAAGGGGUCAACAGCCGUUCAGUACCAAGUCUCAGGGGAAACUUUGAGAUGGCCUUGCAAAGGGUAUGGUAAUAAGCUGACGGACAUGGUCCUAACCACGCAGCCAAGUCCUAAGUCAACAGAUCUUCUGUUGAUAUGGAUGCAGUUCACAGACUAAAUGUCGGUCGGGGAAGAUGUAUUCUUCUCAUAAGAUAUAGUCGGACCUCUCCUUAAUGGGAGCUAGCGGAUGAAGUGAUGCAACACUGGAGCCGCUGGGAACUAAUUUGUAUGCGAAAGUAUAUUGAUUAGUUUUGGAGUACUCGUGGUCG
Outline: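 Library with all eight P1ex-region intron nucleotides randomised, intron inside the knt kanamycin-resistance gene on pET-22b(+), in E. coli BL21(DE3). Cells grew overnight at 37°C or 30°C on LB agar with or without 25 μg/mL kanamycin (plus 100 μg/mL carbenicillin, 50 μM IPTG, 0.2% rhamnose), in six replicate transformations. Pooled colonies were amplicon-sequenced on Illumina HiSeq 2500. DiMSum fitness is the error-weighted combination of wild-type-normalised replicate fold changes, kanamycin versus none.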

| Sequence | self-splicing fitness (ln) (30 °C) | self-splicing fitness (ln) (37 °C) |
| --- | --- | --- |
| UUUAAGCAAUAUUACGUGAU | -2.59 ± 0.15 | -1.67 ± 0.21 |
| UUUAAGCAAUAUUACGUGGG | -2.92 ± 0.13 | -2.1 ± 0.17 |
| UUUAAGCAAUAUUACGUUUC | -3.96 ± 0.35 | -3.19 ± 0.4 |
| UUUAAGCAAUAUUACGUUUU | -3.93 ± 0.2 | -1.22 ± 0.16 |
| UUUCAGCAAUAUUACGAAAC | – | -2.53 ± 0.3 |
| UUUCAGCAAUAUUACGAGCA | -1.41 ± 0.14 | -0.671 ± 0.12 |
| UUUCAGCAAUAUUACGAUCA | 0.131 ± 0.14 | 0.086 ± 0.14 |
| UUUCAGCAAUAUUACGAUGU | -2.13 ± 0.13 | -1.47 ± 0.15 |
| UUUCAGCAAUAUUACGCAAA | -2.1 ± 0.15 | -0.378 ± 0.13 |
| UUUCAGCAAUAUUACGCAGU | -4.25 ± 0.31 | -1.59 ± 0.17 |
| UUUCAGCAAUAUUACGCGAC | -2.9 ± 0.37 | – |
| UUUCAGCAAUAUUACGCUAA | -1.25 ± 0.18 | -0.815 ± 0.17 |
| UUUCAGCAAUAUUACGCUUU | -2.69 ± 0.14 | -1.52 ± 0.13 |
| UUUCAGCAAUAUUACGGAAC | -1.24 ± 0.22 | – |
| UUUCAGCAAUAUUACGGACU | -0.982 ± 0.13 | -0.184 ± 0.11 |
| UUUCAGCAAUAUUACGGAGA | -1.26 ± 0.14 | -1.13 ± 0.22 |
| UUUCAGCAAUAUUACGGAUG | -0.64 ± 0.064 | 0.256 ± 0.096 |
| UUUCAGCAAUAUUACGGGAA | -1.96 ± 0.2 | -1.93 ± 0.21 |
| UUUCAGCAAUAUUACGGGGC | -2.91 ± 0.18 | -3.35 ± 0.31 |
| UUUCAGCAAUAUUACGGGGU | -3.58 ± 0.17 | -1.68 ± 0.15 |
| UUUCAGCAAUAUUACGGUAG | -0.521 ± 0.088 | -0.526 ± 0.12 |

| Sequence | self-splicing fitness (ln) (30 °C) | self-splicing fitness (ln) (37 °C) |
| --- | --- | --- |
| UUUCAGCAAUAUUACGUAAU | -2.89 ± 0.14 | -1.58 ± 0.16 |
| UUUCAGCAAUAUUACGUAGG | -0.515 ± 0.068 | -0.741 ± 0.11 |
| UUUCAGCAAUAUUACGUCAU | -3.32 ± 0.24 | -2.47 ± 0.35 |
| UUUCAGCAAUAUUACGUGAA | -0.761 ± 0.061 | -0.17 ± 0.088 |
| UUUCAGCAAUAUUACGUGGU | -3.84 ± 0.2 | -3.02 ± 0.21 |
| UUUGAGCAAUAUUACGAAGA | -2.31 ± 0.44 | -1.55 ± 0.38 |
| UUUGAGCAAUAUUACGACUU | -3.13 ± 0.34 | -2.28 ± 0.37 |
| UUUGAGCAAUAUUACGAGCU | -2.69 ± 0.39 | – |
| UUUGAGCAAUAUUACGAUUA | -2.13 ± 0.41 | -2.41 ± 0.36 |
| UUUGAGCAAUAUUACGCAGA | – | -1.51 ± 0.32 |
| UUUGAGCAAUAUUACGCCCU | -1.25 ± 0.41 | -1.96 ± 0.41 |
| UUUGAGCAAUAUUACGGAAC | -1.63 ± 0.16 | -1.2 ± 0.24 |
| UUUGAGCAAUAUUACGGAUG | -2.66 ± 0.21 | – |
| UUUGAGCAAUAUUACGGCUG | -0.955 ± 0.11 | -0.634 ± 0.17 |
| UUUGAGCAAUAUUACGGUCC | -3.88 ± 0.28 | -1.8 ± 0.23 |
| UUUGAGCAAUAUUACGGUCU | – | -2.63 ± 0.41 |
| UUUGAGCAAUAUUACGGUGG | -2.98 ± 0.31 | – |
| UUUGAGCAAUAUUACGGUUU | -3.23 ± 0.48 | -1.92 ± 0.32 |
| UUUGAGCAAUAUUACGUAAU | -3.94 ± 0.43 | -1.65 ± 0.23 |
| UUUGAGCAAUAUUACGUCAA | -1.66 ± 0.21 | -2.66 ± 0.37 |
| UUUGAGCAAUAUUACGUCGC | -3.06 ± 0.49 | -2.07 ± 0.47 |

| Sequence | self-splicing fitness (ln) (30 °C) | self-splicing fitness (ln) (37 °C) |
| --- | --- | --- |
| UUUGAGCAAUAUUACGUGUG | -3.37 ± 0.23 | -2.55 ± 0.33 |
| UUUUAGCAAUAUUACGAAAU | -2.34 ± 0.34 | -1.72 ± 0.27 |
| UUUUAGCAAUAUUACGACUG | -0.652 ± 0.097 | -0.152 ± 0.13 |
| UUUUAGCAAUAUUACGAGGG | -2.9 ± 0.42 | – |
| UUUUAGCAAUAUUACGAUAU | -2.66 ± 0.22 | -1.42 ± 0.28 |
| UUUUAGCAAUAUUACGCAUG | -1.3 ± 0.12 | -0.672 ± 0.13 |
| UUUUAGCAAUAUUACGCGCU | -2.57 ± 0.25 | -0.994 ± 0.21 |
| UUUUAGCAAUAUUACGGAAA | -1.73 ± 0.23 | -1.14 ± 0.34 |
| UUUUAGCAAUAUUACGGGCG | -0.356 ± 0.12 | -0.216 ± 0.19 |
| UUUUAGCAAUAUUACGGGUG | -1.65 ± 0.11 | -0.739 ± 0.14 |
| UUUUAGCAAUAUUACGGUGA | -0.38 ± 0.15 | 0.0249 ± 0.14 |
| UUUUAGCAAUAUUACGUAAU | -3.62 ± 0.28 | -1.6 ± 0.22 |
| UUUUAGCAAUAUUACGUAUG | -2.01 ± 0.19 | -0.735 ± 0.2 |
| UUUUAGCAAUAUUACGUCAA | -2.59 ± 0.17 | -1.34 ± 0.13 |
| UUUUAGCAAUAUUACGUCCG | -2.37 ± 0.34 | 0.963 ± 0.33 |
| UUUUAGCAAUAUUACGUCCU | – | 0.494 ± 0.32 |
| UUUUAGCAAUAUUACGUGCA | -2.12 ± 0.17 | -1.11 ± 0.18 |
| UUUUAGCAAUAUUACGUGGC | -3.09 ± 0.42 | – |
| UUUUAGCAAUAUUACGUGGU | -3.72 ± 0.35 | -3.24 ± 0.42 |
| UUUUAGCAAUAUUACGUUGA | – | -1.8 ± 0.36 |
| UUUUAGCAAUAUUACGUUGG | -2.07 ± 0.21 | -2.23 ± 0.32 |
